The results in this text go back to US20140371150A1 (UNIVERSITE DE NANTES, published 2014).

The target in test [1] is T1, RANK-Fc carrier-free (R&D Systems) (human, UniProt Q9Y6Q6 30-212).
T1 construct: Bought from R&D Systems; Immobilized on the sensor chip for SPR and used in solution for NMR; also called hRANK; RANK-Fc CF; not shown: Fc part of the bought fusion protein
T1 sequence (looked up): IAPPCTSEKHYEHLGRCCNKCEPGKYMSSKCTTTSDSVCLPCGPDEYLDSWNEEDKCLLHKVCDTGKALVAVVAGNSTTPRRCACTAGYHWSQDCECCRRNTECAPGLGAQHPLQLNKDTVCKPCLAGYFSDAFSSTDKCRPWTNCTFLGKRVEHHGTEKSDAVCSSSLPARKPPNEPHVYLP
Nature of the test: SPR (BIAcore 3000), RANK-Fc immobilized, single cycle kinetics, 1:1 Langmuir model. The method, then: Biosensor experiments were carried out on a BIAcore 3000 instrument (BIAcore) as published previously (Baud'Huin et al. 2009). Recombinant purified RANKL (2 μg/mL in 5 mM maleate, pH 5.75) or RANK-Fc carrier-free (5 μg/mL in sodium acetate buffer, pH 5.0) were covalently immobilized to the dextran matrix of a CMS sensor chip (BIAcore) at a flow rate of 5 μL/min. Immobilization levels ranging from 400 to 3000 Response Units (RU) for RANKL or 5000 RU for RANK were obtained. Binding assays were performed at 25° C. in 10 mM Hepes buffer, pH 7.4. The association phase was 180 seconds followed by a dissociation phase in the same buffer. Polypeptides binding studies to RANK or RANKL were determined using single cycle kinetics, starting with 100 μM of the polypeptide of interest followed by 2-fold serial dilutions (ranging from 100 to 0.78 μM). The sensorgrams were fitted to calculate the equilibrium-dissociation constants using the Langmuir 1:1 model with BiaEval 4.1 software (BIAcore). RANK-Fc CF, RANKL and OPG carrier-free were obtained from R&D Systems (Minneapolis, Minn., USA).
Binding of the polypeptides to RANK was studied using surface plasmon resonance (FIG. 1C). Several polypeptides bound to immobilized RANK in a dose-dependent manner, presented here is Pep1 (SEQ ID NO: 33).

For test [2], the target named is T2, human RANK on cells (human CD14+ monocytes; HEK-RANK cells) (human, UniProt Q9Y6Q6 30-616).
T2 sequence (looked up): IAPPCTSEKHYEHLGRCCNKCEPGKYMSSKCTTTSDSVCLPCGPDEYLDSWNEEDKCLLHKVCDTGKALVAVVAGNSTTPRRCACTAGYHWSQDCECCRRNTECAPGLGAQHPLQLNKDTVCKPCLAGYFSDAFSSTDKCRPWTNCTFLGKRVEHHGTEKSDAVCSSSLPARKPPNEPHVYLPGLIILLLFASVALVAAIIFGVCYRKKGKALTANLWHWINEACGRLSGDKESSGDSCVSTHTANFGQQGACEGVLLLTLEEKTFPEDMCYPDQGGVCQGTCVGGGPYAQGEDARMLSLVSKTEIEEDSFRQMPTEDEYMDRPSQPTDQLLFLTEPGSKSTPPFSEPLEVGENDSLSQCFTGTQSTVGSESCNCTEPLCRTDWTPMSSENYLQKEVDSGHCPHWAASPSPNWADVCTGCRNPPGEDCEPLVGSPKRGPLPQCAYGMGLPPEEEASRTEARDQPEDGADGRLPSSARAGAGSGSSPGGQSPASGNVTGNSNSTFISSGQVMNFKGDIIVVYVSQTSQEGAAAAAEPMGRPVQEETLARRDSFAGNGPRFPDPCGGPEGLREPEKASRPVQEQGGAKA
Nature of the test: cell-based or functional assay.

The target of test [3] is T3, mouse RANK on cells (murine CD11b+ monocytes; RAW264.7 cells) (mouse, UniProt O35305 31-625).
T3 sequence (looked up): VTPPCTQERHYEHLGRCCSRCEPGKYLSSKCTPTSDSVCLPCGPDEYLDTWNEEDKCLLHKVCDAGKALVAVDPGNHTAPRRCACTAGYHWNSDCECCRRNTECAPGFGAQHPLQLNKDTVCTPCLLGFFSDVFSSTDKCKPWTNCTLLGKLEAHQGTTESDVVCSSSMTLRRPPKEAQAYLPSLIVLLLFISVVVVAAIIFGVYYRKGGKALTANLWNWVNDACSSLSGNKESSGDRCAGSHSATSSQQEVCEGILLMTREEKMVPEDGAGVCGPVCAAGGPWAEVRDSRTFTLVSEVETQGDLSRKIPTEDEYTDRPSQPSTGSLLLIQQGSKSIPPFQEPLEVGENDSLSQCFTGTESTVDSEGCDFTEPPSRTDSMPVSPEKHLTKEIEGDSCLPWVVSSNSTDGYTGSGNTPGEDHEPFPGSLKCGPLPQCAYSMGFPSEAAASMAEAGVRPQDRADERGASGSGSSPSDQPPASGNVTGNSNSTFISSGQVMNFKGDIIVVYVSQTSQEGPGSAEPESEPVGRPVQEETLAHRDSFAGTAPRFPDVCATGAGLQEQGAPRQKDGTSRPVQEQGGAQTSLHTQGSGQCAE
Nature of the test: cell-based or functional assay.

B1: Pep1 (peptide)
peptide: ELASYIIITQLG
notes: Synthetic designed peptide; the SPR text mentions no pegylation; also called polypeptide Pep1
On to B1, for which, in test [1], the equilibrium dissociation constant (Kd) stood at 20.6 µM and the off-rate (koff) turned out to be 0.000278 s⁻¹.

B2: Pep8 (peptide)
peptide: NVLKLCSGE
notes: Pegylated forms (N-(PEG)5, N-(PEG)8) were tested only in gene expression assays and in vivo; also called polypeptide Pep8
For the molecule B2, the “IC50 of RANKL-induced osteoclast formation (TRAP-positive multinucleated cells), human CD14+ cells” value in test [2] amounted to 40 µM. In addition, in test [3], the “IC50 of RANKL-induced osteoclast formation (TRAP-positive multinucleated cells), murine CD11b+ cells” value was found to be 30 µM. Also, in test [1], binding was put at a Kd of 10.5 µM, the koff amounted to 0.0052 s⁻¹ and the kon is 495 M⁻¹ s⁻¹.

For orientation: Kd means the concentration at which binding is half-saturated. A word on the koff: it is a measure of how fast the partners let go of each other. The term kon denotes the rate constant with which the complex forms. High values mean fast association, low ones slow association.
